From publication PMC10397247
Each block holds one binder with its values, some of them ahead of it.

Key:
[1] = molecular target: T1, 4H470-bA; assay: two-hybrid library CCNG1;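 further: natural log of median RNA to DNA barcode read ratio; higher means stronger binding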
T1 chain: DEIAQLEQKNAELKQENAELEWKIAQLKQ

[2] = molecular target: T2, 4H3907-bA; assay: two-hybrid library CCNG1;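 further: natural log of median RNA to DNA barcode read ratio; higher means stronger binding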
T2 chain: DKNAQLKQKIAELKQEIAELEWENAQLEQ

[3] = molecular target: T3, 4H4038-bA; assay: two-hybrid library CCNG1;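 further: natural log of median RNA to DNA barcode read ratio; higher means stronger binding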
T3 chain: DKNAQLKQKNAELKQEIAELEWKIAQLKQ

[4] = molecular target: T4, 4H3961-bA; assay: two-hybrid library CCNG1;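 further: natural log of median RNA to DNA barcode read ratio; higher means stronger binding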
T4 chain: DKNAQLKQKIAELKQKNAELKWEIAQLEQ

[5] = molecular target: T5, 4H607-bA; assay: two-hybrid library CCNG1
T5 chain: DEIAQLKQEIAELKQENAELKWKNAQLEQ

[6] = molecular target: T6, 4H3010-bH; assay: two-hybrid library CCNG1
T6 chain: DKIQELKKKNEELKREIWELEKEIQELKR

[7] = molecular target: T7, 4H2702-bH; assay: two-hybrid library CCNG1
T7 chain: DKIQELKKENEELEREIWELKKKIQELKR

[8] = molecular target: T8, 4H3112-bH; assay: two-hybrid library CCNG1
T8 chain: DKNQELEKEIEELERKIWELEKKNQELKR

[9] = molecular target: T9, 4H968-bH; assay: two-hybrid library CCNG1
T9 chain: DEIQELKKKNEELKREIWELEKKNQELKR

[10] = molecular target: T10, 4H346-bH; assay: two-hybrid library CCNG1
T10 chain: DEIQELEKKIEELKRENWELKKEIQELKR

[11] = molecular target: T11, 4H3427-bH; assay: two-hybrid library CCNG1
T11 chain: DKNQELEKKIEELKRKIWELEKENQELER

[12] = molecular target: T12, 4H683-bH; assay: two-hybrid library CCNG1
T12 chain: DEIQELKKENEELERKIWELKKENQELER

[13] = molecular target: T13, 4H4073-bH; assay: two-hybrid library CCNG1
T13 chain: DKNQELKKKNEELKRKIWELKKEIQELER

[14] = molecular target: T14, 4H575-bH; assay: two-hybrid library CCNG1
T14 chain: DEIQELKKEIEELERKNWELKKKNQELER

[15] = molecular target: T15, 4H457-bH; assay: two-hybrid library CCNG1
T15 chain: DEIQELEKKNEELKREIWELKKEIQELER

[16] = molecular target: T16, 4H2627-bH; assay: two-hybrid library CCNG1
T16 chain: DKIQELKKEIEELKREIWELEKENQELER

[17] = molecular target: T17, 4H754-bH; assay: two-hybrid library CCNG1
T17 chain: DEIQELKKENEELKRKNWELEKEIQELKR

[18] = molecular target: T18, 4H797-bH; assay: two-hybrid library CCNG1
T18 chain: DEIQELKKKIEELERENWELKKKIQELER

[19] = molecular target: T19, 4H855-bH; assay: two-hybrid library CCNG1
T19 chain: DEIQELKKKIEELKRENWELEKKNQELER

[20] = molecular target: T20, 4H3926-bH; assay: two-hybrid library CCNG1
T20 chain: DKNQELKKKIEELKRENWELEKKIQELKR

[21] = molecular target: T21, 4H2673-bH; assay: two-hybrid library CCNG1
T21 chain: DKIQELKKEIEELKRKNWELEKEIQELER

[22] = molecular target: T22, 4H953-bH; assay: two-hybrid library CCNG1
T22 chain: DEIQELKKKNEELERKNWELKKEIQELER

[23] = molecular target: T23, 4H918-bH; assay: two-hybrid library CCNG1
T23 chain: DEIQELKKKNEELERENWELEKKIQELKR

[24] = molecular target: T24, 4H780-bH; assay: two-hybrid library CCNG1
T24 chain: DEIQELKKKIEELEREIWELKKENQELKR

[25] = molecular target: T25, Q8-AA; assay: two-hybrid library CCmax
T25 chain: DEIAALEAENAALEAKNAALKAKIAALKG

[26] = molecular target: T26, 4H570-bN; assay: two-hybrid library CCNG1
T26 chain: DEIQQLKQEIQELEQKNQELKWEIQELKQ

[27] = molecular target: T27, 4H3162-bN; assay: two-hybrid library CCNG1
T27 chain: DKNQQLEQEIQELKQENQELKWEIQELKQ

[28] = molecular target: T28, 4H3277-bN; assay: two-hybrid library CCNG1
T28 chain: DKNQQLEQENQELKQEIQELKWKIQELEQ

[29] = molecular target: T29, 4H1899-bN; assay: two-hybrid library CCNG1
T29 chain: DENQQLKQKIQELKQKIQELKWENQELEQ

[30] = molecular target: T30, 4H3926-bN; assay: two-hybrid library CCNG1
T30 chain: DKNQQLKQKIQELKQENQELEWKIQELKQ

[31] = molecular target: T31, 4H3175-bN; assay: two-hybrid library CCNG1
T31 chain: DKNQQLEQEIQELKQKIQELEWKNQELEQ

[32] = molecular target: T32, 4H953-bA; assay: two-hybrid library CCNG1
T32 chain: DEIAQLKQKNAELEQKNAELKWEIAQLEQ

[33] = molecular target: T33, 4H3298-bN; assay: two-hybrid library CCNG1
T33 chain: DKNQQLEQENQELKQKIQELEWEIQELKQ

[34] = molecular target: T34, 4H3974-bN; assay: two-hybrid library CCNG1
T34 chain: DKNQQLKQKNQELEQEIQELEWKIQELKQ

[35] = molecular target: T35, 4H3497-bN; assay: two-hybrid library CCNG1
T35 chain: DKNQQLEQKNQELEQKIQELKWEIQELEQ

[36] = molecular target: T36, 4H3817-bN; assay: two-hybrid library CCNG1
T36 chain: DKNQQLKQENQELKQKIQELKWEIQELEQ

[37] = molecular target: T37, 4H3858-bN; assay: two-hybrid library CCNG1
T37 chain: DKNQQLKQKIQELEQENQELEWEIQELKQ

[38] = molecular target: T38, 4H3462-bN; assay: two-hybrid library CCNG1
T38 chain: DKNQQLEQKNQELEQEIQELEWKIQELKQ

[39] = molecular target: T39, 4H906-bN; assay: two-hybrid library CCNG1
T39 chain: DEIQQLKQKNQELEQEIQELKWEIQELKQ

[40] = molecular target: T40, 4H717-bH; assay: two-hybrid library CCNG1
T40 chain: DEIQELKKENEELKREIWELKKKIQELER

[41] = molecular target: T41, 4H1985-bN; assay: two-hybrid library CCNG1
T41 chain: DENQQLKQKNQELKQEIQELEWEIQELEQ

[42] = molecular target: T42, 4H2697-bN; assay: two-hybrid library CCNG1
T42 chain: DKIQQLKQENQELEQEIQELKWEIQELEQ

[43] = molecular target: T43, 4H3613-bN; assay: two-hybrid library CCNG1
T43 chain: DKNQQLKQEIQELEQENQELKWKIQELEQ

[44] = molecular target: T44, 4H850-bN; assay: two-hybrid library CCNG1
T44 chain: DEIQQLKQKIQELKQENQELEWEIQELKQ

[45] = molecular target: T45, 4H591-bN; assay: two-hybrid library CCNG1
T45 chain: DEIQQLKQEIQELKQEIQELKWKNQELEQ

[46] = molecular target: T46, 4H626-bN; assay: two-hybrid library CCNG1
T46 chain: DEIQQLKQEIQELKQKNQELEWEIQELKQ

[47] = molecular target: T47, 4H3628-bN; assay: two-hybrid library CCNG1
T47 chain: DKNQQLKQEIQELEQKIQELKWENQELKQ

[48] = molecular target: T48, O8-bN; assay: two-hybrid library CCNG1
T48 chain: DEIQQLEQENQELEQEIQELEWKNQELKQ

[49] = molecular target: T49, 4H3297-bN; assay: two-hybrid library CCNG1
T49 chain: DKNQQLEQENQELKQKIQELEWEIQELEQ

[50] = molecular target: T50, 4H570-bH; assay: two-hybrid library CCNG1
T50 chain: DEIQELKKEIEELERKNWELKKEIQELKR

[51] = molecular target: T51, 4H2585-bN; assay: two-hybrid library CCNG1
T51 chain: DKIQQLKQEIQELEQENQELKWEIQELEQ

[52] = molecular target: T52, 4H264-bN; assay: two-hybrid library CCNG1
T52 chain: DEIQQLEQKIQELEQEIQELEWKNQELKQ

[53] = molecular target: T53, 4H2518-bN; assay: two-hybrid library CCNG1
T53 chain: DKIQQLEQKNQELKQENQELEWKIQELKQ

[54] = molecular target: T54, 4H932-bN; assay: two-hybrid library CCNG1
T54 chain: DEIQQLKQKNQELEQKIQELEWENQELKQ

[55] = molecular target: T55, 4H796-bN; assay: two-hybrid library CCNG1
T55 chain: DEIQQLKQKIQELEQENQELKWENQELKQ

[56] = molecular target: T56, 4H3381-bN; assay: two-hybrid library CCNG1
T56 chain: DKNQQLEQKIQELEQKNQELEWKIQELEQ

[57] = molecular target: T57, 4H2760-bN; assay: two-hybrid library CCNG1
T57 chain: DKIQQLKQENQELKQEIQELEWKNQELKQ

[58] = molecular target: T58, 4H730-bN; assay: two-hybrid library CCNG1
T58 chain: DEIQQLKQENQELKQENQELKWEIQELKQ

[59] = molecular target: T59, 4H949-bN; assay: two-hybrid library CCNG1
T59 chain: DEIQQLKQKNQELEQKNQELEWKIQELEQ

[60] = molecular target: T60, 4H2859-bN; assay: two-hybrid library CCNG1
T60 chain: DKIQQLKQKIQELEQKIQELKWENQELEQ

[61] = molecular target: T61, 4H2931-bN; assay: two-hybrid library CCNG1
T61 chain: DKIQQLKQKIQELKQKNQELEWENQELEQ

[62] = molecular target: T62, 4H3041-bN; assay: two-hybrid library CCNG1
T62 chain: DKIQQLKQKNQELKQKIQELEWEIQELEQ

[63] = molecular target: T63, 4H3364-bN; assay: two-hybrid library CCNG1
T63 chain: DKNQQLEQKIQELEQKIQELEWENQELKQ

[64] = molecular target: T64, 4H56-bN; assay: two-hybrid library CCNG1
T64 chain: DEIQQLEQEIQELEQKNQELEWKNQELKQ

[65] = molecular target: T65, 4H349-bN; assay: two-hybrid library CCNG1
T65 chain: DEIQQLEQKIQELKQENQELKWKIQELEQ

Binder: DKIQELKKEIEELKREIWELEKENQELER [4H2627-bH]
- interaction score [6]: 0.547
- interaction score [7]: 0.512
- interaction score [8]: -0.225
- interaction score [9]: 0.133
- interaction score [10]: -0.309
- interaction score [11]: 1.18
- interaction score [12]: 0.431
- interaction score [13]: 1.38
- interaction score [14]: -0.0013
- interaction score [15]: -1.91
- interaction score [16]: 1.3
- interaction score [17]: -1.94
- interaction score [18]: -0.67
- interaction score [19]: -0.425
- interaction score [20]: -0.251
- interaction score [21]: 0.273
- interaction score [22]: -1.4
- interaction score [23]: -0.493
- interaction score [24]: -0.424

Binder: DENQQLKQKIQELKQKIQELKWENQELEQ [4H1899-bN]
- interaction score [26]: -1
- interaction score [27]: -0.75
- interaction score [28]: -1.21
- interaction score [29]: -1.24
- interaction score [30]: -0.429
- interaction score [31]: -0.0673
- interaction score [32]: -1.81
- interaction score [33]: -0.744
- interaction score [34]: -0.336
- interaction score [35]: -0.658
- interaction score [36]: -0.969
- interaction score [37]: -0.633
- interaction score [38]: -2.27
- interaction score [39]: -0.654
- interaction score [40]: -0.282
- interaction score [41]: -0.785
- interaction score [42]: -1.18
- interaction score [43]: 0.0619
- interaction score [44]: -1.55
- interaction score [45]: -1.42
- interaction score [46]: -0.642
- interaction score [47]: 0.469

Binder: DKNQQLEQEIQELKQENQELKWEIQELKQ [4H3162-bN]
- interaction score [27]: 0.979
- interaction score [28]: -0.514
- interaction score [30]: 0.163
- interaction score [31]: -0.427
- interaction score [33]: -0.102
- interaction score [35]: -0.903
- interaction score [48]: -3.16
- interaction score [38]: 0.241
- interaction score [39]: -0.289
- interaction score [43]: -1.7
- interaction score [45]: -1.33
- interaction score [46]: -1.41
- interaction score [47]: -0.668

Binder: DKIQQLEQKNQELKQENQELEWKIQELKQ [4H2518-bN]
- interaction score [49]: -0.555
- interaction score [50]: -2.15
- interaction score [51]: 0.403
- interaction score [52]: 1.11
- interaction score [53]: -0.0161
- interaction score [54]: -0.482
- interaction score [55]: 0.473
- interaction score [56]: -0.272
- interaction score [57]: 0.227
- interaction score [58]: 1.02
- interaction score [59]: -0.152
- interaction score [60]: -0.834
- interaction score [61]: -0.539
- interaction score [62]: -0.522
- interaction score [63]: -0.536
- interaction score [64]: -0.0872
- interaction score [65]: -0.274

Continued, values first:

- interaction score [1]: -1.37
- interaction score [2]: 0.8
- interaction score [3]: -0.611
- interaction score [4]: -1.16
- interaction score [5]: -0.806
Binder: DKNAQLKQKIAELKQEIAELEWENAQLEQ [4H3907-bA]

- interaction score [25]: -1.19
Binder: DEIAALEAENAALEAKNAALKAKIAALKG [Q8-AA]

- interaction score [3]: -0.541
Binder: DKNAQLKQKNAELKQEIAELEWKIAQLKQ [4H4038-bA]
